Experimental data published in PMC6270943 (2014).

Molecular target: T1, antisense peptide IPPKYW
T1 chain: IPPKYW
Test: tryptophan fluorescence titration

## YGGFM [Met-enkephalin]
  Kd: 19 µM
